Results as given in patent US8133978.

Tests used:
[1] = target: Human interleukin-18 (recombinant human IL-18) (human) (UniProt Q14116); assay: cell-based or functional assay
[2] = target: Human interleukin-18 (recombinant human IL-18) (human) (UniProt Q14116); assay: ELISA, IL-18 bp-Fc coated at 0.5 ug/ml, human IL-18 added at 100 ng/ml, antibody titrated, detection anti-rat IgG HRP, Abs 490 nm

Chain of Human interleukin-18 (recombinant human IL-18) (human) (Q14116 37-193 limits assumed): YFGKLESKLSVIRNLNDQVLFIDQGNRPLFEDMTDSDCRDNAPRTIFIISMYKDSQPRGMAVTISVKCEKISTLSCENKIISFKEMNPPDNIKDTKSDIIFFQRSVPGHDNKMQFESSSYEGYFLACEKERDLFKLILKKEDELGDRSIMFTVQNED

B1: Parental rat antibody 2C10 (antibody, from another filing, V domains shown)
VH: EVQLQQSGAELVRPGTSVKLSCKVSGEISTGYYFHFVRRRPGQGLEWIGRIDPEDDSTKYAERFKDRATLTAQTSSNTAYLNLSSLTSEDTATYFCTTWRIYRDSSGRPFYVMDAWGQGASVTVSS
VL: DIQMTQSPASLSASLGETVSIECLASEDIYTYLTWYQQKPGKSPQLLIYGANKLQDGVPSRFSGSGSGTQYSLKISGIQPEDEGDYFCLQGSKFPLTFGSGTKLEIKR
- IC50, LPS-stimulated IFNγ release, human PBMC, Donor 1 10% serum [1]: 0.023
- IC50, LPS-stimulated IFNγ release, human PBMC, Donor 1 25% serum [1]: 0.069
- IC50, LPS-stimulated IFNγ release, human PBMC, Donor 3 10% serum [1]: 0.033
- IC50, LPS-stimulated IFNγ release, human PBMC, Donor 3 25% serum [1]: 0.086
- complete inhibition of IL-18 mediated IFNγ release, LPS-stimulated human PBMC, 10% or 25% human serum [1]: > 1 µg/mL
- inhibition of LPS-induced IFNγ production in human PBMC [1]: 1 µg/mL
- EC50 (read off the curve) [2]: 0.04 µg/mL
